Test results published in the nanobody polyreactivity screen of Harvey et al. (2022).

Assay: yeast display, Sf9 membrane polyspecificity reagent, FACS + sequencing; frameworks hold sequencing errors
Method in brief: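 Galactose-induced (36–48 hours) yeast carrying a synthetic nanobody display library were exposed to 10% biotinylated, detergent-solubilized Sf9 membrane reagent at 4 °C for 1 hour. FACS followed streptavidin microbead enrichment, using low and high (top ~1%) gates for expression (anti-HA) and reagent binding (streptavidin). Colony PCR, MiSeq 2 × 250 sequencing and CDR-length filtering followed. Labels for polyreactivity reflect the gate of origin.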

Sequence	polyreactivity (PSR sort gate)
QVQLVESGGGLVQAVGSLLLSCAASGITFRYYAMGWYRQAPGKERELVARITTDGSTHYADSVMGRFTISRDNAKNTVYLQMNSLKPEDTAVYYCNVDGYYLFVRGYEYWGLGTQVTVSS	low polyreactivity
QVQLVESGGGLVQAVGSLRLSCAASGFIFAQNARGGSRPAPGKERELVAAIYGSGVRTYYADSVKGRFTISRDNAKNTVYLQMNSLKPEDTAVYYCAKDTYLQIYQYGYWGQGTQVTVSS	high polyreactivity
QVQLVESGGGLVQAVGSLRLSCAASGFIFGTYAMGWYRQAPGKERELVAVITRGGTTYYADSVKGRFTISRDNAKNTVYLQMNSLKPEDTAVYYCAADPWALFVGDEYYYWGQGTQVTVSS	low polyreactivity
QVQLVESGGGLVQAVGSLRLSCAASGFTFSVNAMGWYRQAPGKERELVAAITRSGGRTYYADSVKGRFTISRDNAQNTVYLQMNSLKPEDTAVYYCATPRSRTDGYDYWGQGTQVTVSS	high polyreactivity
QVQLVESGGGLVQAVGSLRLSCAASGFTYSPNAMGWYRQAPGKERELVATISWNGGRTHYADSVKGRFTISRDNAKNTVYLQMNSLKPEDTAVYDCNVVRATGRYYYWGQGTQVTVSS	high polyreactivity
QVQLVESGGGLVQAVGSLRLSCAASGLIFKKYAMGWYRQAPGKERELVATITSRGGSTYYADSVKGRFTISRDNAKNTVYLQMNSLKPEDTAVYYCAARFGFYTAYTYNYWGQGTQVTVSS	high polyreactivity
QVQLVESGGGLVQAVGSLRLSCAASGRIFRYYAMGWYRQATGKESELVAAISDSSGYTYYADSVKGRFTISRDNAKNTVYLQMISLKPEDTAVYYCRDYLGSGYYYWGQGTQVTVSS	high polyreactivity
QVQLVESGGGLVQAVGSLRLSCAASGRIFYPYAMGWYRQAPGKERELVAVITSGTGTYYADSVKGRFTISRDNAKNTVYLQMNSLKQEDTAVYYCAADRWYYRHRSSSYGYDYWGQGTQVTVSS	high polyreactivity
QVQLVESGGGLVQAVGSLRLSCAASGRIIVRNAMGWYRQAPGKERELVAAISRSGGSTYYADSVKGRFTLSRDNAKNTVYLQMNSLIPEYTAVYYCAADYPITYTSKFNYWGHGTQVTVSS	high polyreactivity
QVQLVESGGGLVQAVGSLRLSCAASGRTFRTYTMGWYRQAPGKERELVAAISRGGSTNYADSLKGRFTISRDNAKNTVYLQMNSLKPEDTAVYYCNAKASFWSPYDYWGQGTQVTVSS	high polyreactivity
QVQLVESGGGLVQAVGSLRLSCAASGRTFYSYAMGWYRQAPGKERELVAAISRTGGSTYYADSVKGRFTISLDNAKNTVYLQMNSLKPEDTAVYYCAAVYRRNEFGYWGQGTQVTVSS	high polyreactivity
QVQLVESGGGLVQAVGSLRLSCAASGYTFVIYAMGWYRQAPGKERELVAAITTIGGRTYYADSVKGRFTISRDNAKNTVYLQMISLKPEDTAVYYCAADIRSNRLYDGGYWGLGTQVTVSS	low polyreactivity
QVQLVESGGGLVQAVGSLRLSCADSGRIFYGYDMGWYRQAPGKERELVAAITWRGGTFYADSVKGRFTISRDNEKKTVYLQMNSLKPEDTAVYYCSARVSSYGRYDYWGQGTQVTVSS	high polyreactivity
QVQLVESGGGLVQAVGSLRLSCDASGLTFNSNAMGWYIQAHGKDRELVATISRGGTTNYADSVKGRFTISRDNAKNTVYLQMNSLKPEDTAVYYCNALRGSRYDYWGQGTQVTVSS	high polyreactivity
QVQLVESGGGLVQAVGSLRLSGAASGSIFQYTAMGRYRQAPGKERELVAAISSRGGIRYYADSVKGRFTISRDNAKYTVFLQMNSLKPEDTAVYYCAAEAYYSDVRWSEYWGQGTQVTVSS	high polyreactivity
QVQLVESGGGLVQAVGSLRLSSAASGFIFWYYAMGWYRQAPGKERELVAAISSGGGTNYADSVKGRFTISRDNAKNTVYLQMNSLKPEDYAVYYCAAYGPLTGYDYWGQGTQVTVSS	low polyreactivity

Sequence	polyreactivity (PSR sort gate)
QVQLVESGGGLVQAVGSLSLICAASGSTFLKYTMGWYRQAPWKERELVAAISKSGGSTYYADSVKGRFTISRDNAKNTVYLQMNSLKPEDTAVYYCAKGRYWVSSYGYGYWVQGTQVTVSS	high polyreactivity
QVQLVESGGGLVQEGCSLRLTCAASGSIFYYYAMGWYRQAPRKERELVATITWNGAGTFYADSVKGRFTISRDNAKNTVYLQMNSLKPEDTAVYYCAASWYGESGYDYWGQGTQVTVSS	low polyreactivity
QVQLVESGGGLVQEGGILPLSCAASGRIFGTYAMGWYRQAPGKERELVAAISSSGTSTYYADSVKGRFTISRDNAKNTVYLPMNSLKPEDTAVYYCAARYPRTAYDYWGQCTQVTVSS	low polyreactivity
QVQLVESGGGLVQEGGILRLSCAASGLTFYGYAMGWYRQAPGKERELVAAITSGDSTYYADSVKGRFTISRDNAKNTVYLQMNSLKPEDTAVYYCAAVGGYPRYGYWGQGTQVTVSS	high polyreactivity
QVQLVESGGGLVQEGGSLCLSCAASGIFVYNAMGWYRQAPGKEREFVAAINKSGASTFYADSVKGRFTISRDNAKNTVYLQMNSLKPEDTAVYYCNAGTLYYRYRWGHYYDSWGQGTQVTVSS	low polyreactivity
QVQLVESGGGLVQEGGSLGLSCAASGFIFVRYAMGWYRQAPGKERELVATITRGGGTYYADSVKARFTISRDNAKNTVYLQMKRLKPVDTAVYYCNKRGYSRYTGFGLDSWGQGTQVTVSS	high polyreactivity
QVQLVESGGGLVQEGGSLLISCAASGSIVESYAMGWYRQAPGKEREWVAAITIRGASPYYADSVKGRFTISRDNAKNTVYLQMNSLKPEDTAVYYCNARWPGIGPIYDYWGQGTQVTVSS	low polyreactivity
QVQLVESGGGLVQEGGSLRIICAASGFTFYRYARGWYRQEPGKERELVAAISSHGDRTYYSDSVKGRFTISRDNAKNTVYLQMNSLKPEDTAVYFCNVETLYGYFLHFYLRYYHWGQGTQVTVSS	high polyreactivity
QVQLVESGGGLVQEGGSLRLICAASGIIFYFYAMGWYRQAPGKERELVAAISSGGGSTYYADSVKGRFTISRDNAKNTVYLQMNSLKPEDTAVYYCAAKIGRNFDWGQGTQVTVSS	high polyreactivity
QVQLVESGGGLVQEGGSLRLICAASGRTFVYNTMGWYRQAPGKERELVAAITRSGDSTYDADSVKGRFTISRDTAKITVYIHMKSLKPDDTGVYYCNAVSNRYWLKDYWGQGTQVTVSS	high polyreactivity
QVQLVESGGGLVQEGGSLRLICAASGRTFYKNAMGWYRPAPAKERELVAAISSRGGRTTYADSLKGRYTISRDNAKNTVYLQMNSLKTEDTAVYYCAADWEYDYWGQGTHVTVSS	high polyreactivity
QVQLVESGGGLVQEGGSLRLICAASGSTFAANTMGWYRQEPGKERELVAAITDRGGSTYYADSVKGRFTISRDNAKNTVYLQMITLKPEDTAVYYSAAERPPYGYLVVGYVSTQYYYWGQGTQVTVSS	low polyreactivity
QVQLVESGGGLVQEGGSLRLICSASGIILGPYAMGWYRQAPGKESELVSAISWRGGSTYYADSVKGRFTISRDNAKNTVYLQMNSLKPEDTAVYYCATASRTSRTGWAVYYWGQGTQVTVSS	high polyreactivity
QVQLVESGGGLVQEGGSLRLRWAASGFIFDTYAMGWYRQAPGKERELVAGISDGGSTYYADSVKGRFTISRDNAKNTVYLQLNSLKPEDTAVYYCAAQGEYGFTAYYPGVSWGQGTQVTLSS	low polyreactivity
QVQLVESGGGLVQEGGSLRLSCAASGFIVNRYAMGWYRQAPGKERELVAAITGSGSRTYYADSVKGRFTISRDNAKNTVYLHMNSLKPEATAVYYCNTDRRPTADFGYWGQGTQVTVAS	high polyreactivity
QVQLVESGGGLVQEGGSLRLSCAASGFTFARYAMGWYRQSPGKERELVARISSRGGSTNFADSVKGRFTISRDNAKNTVYLQMNSLKPEDTAVYYCAKYYSSKYYYWGQGTQVTVSS	high polyreactivity
